In one data set the target is T1, NoIPT1 (Nostoc sp. PCC 7120 = FACHB-418, UniProt A0ACD7S271).
T1 construct: gene all0220; full gene in pET-28b(+) (NdeI/SalI), N-terminal polyhistidine tag kept; E. coli BL21(DE3) STAR
T1 sequence (A0ACD7S271 1-244): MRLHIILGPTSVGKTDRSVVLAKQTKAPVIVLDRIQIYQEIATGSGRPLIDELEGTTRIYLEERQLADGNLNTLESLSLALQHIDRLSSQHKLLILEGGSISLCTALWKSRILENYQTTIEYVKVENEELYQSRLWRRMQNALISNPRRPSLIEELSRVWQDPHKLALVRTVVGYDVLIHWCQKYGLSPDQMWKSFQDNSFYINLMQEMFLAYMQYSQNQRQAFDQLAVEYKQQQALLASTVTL
The data set is described as follows: HPLC-UV product determination; trans-zeatin-5'-monophosphate formed. Format: biochemical. As to conditions: with AMP, 10 mM MgCl2, pH 7.5, 25°C.

Substrate in data set [1]: CC(C)=CCOP(=O)(O)OP(=O)(O)O
Description: purified protein. Format: biochemical, Nostoc sp. PCC 7120 = FACHB-418. Conditions: 20 μM AMP, 10 mM MgCl2, 100 mM Tris/HCl pH 7.5, 25°C.

Substrate in data set [2]: Nc1ncnc2c1ncn2[C@@H]1O[C@H](COP(=O)(O)O)[C@@H](O)[C@H]1O
Description: purified protein. The class given is biochemical, Nostoc sp. PCC 7120 = FACHB-418. Conditions: 150 μM DMAPP, 10 mM MgCl2, 100 mM Tris/HCl pH 7.5, 25°C.

The Km is the concentration of substrate that gives half-maximal velocity.

In the case of `C/C(=C\COP(=O)(O)OP(=O)(O)O)CO` [HMBPP, (E)-4-hydroxy-3-methyl-but-2-enyl diphosphate], the “HPLC-UV product determination; trans-zeatin-5'-monophosphate formed” value at NoIPT1 is given as “NoIPT1 used a hydroxylated side chain precursor, HMBPP, to form trans-zeatin-5´-monophosphate in the reaction with AMP”.

B1: NoIPT1 (Nostoc sp. PCC 7120 = FACHB-418) (protein)
chain: MRLHIILGPTSVGKTDRSVVLAKQTKAPVIVLDRIQIYQEIATGSGRPLIDELEGTTRIYLEERQLADGNLNTLESLSLALQHIDRLSSQHKLLILEGGSISLCTALWKSRILENYQTTIEYVKVENEELYQSRLWRRMQNALISNPRRPSLIEELSRVWQDPHKLALVRTVVGYDVLIHWCQKYGLSPDQMWKSFQDNSFYINLMQEMFLAYMQYSQNQRQAFDQLAVEYKQQQALLASTVTL
notes: full gene in pET-28b(+) (NdeI/SalI), N-terminal polyhistidine tag kept; E. coli BL21(DE3) STAR
As for B1, the Michaelis constant (Km) in “purified protein [1]” came to 27.05 ± 2.47 µM; in “purified protein [2]” it was 0.63 ± 0.18 µM.
